The binders below were run against T1, recombinant human IGF1R extracellular fragment IGF1R^933-His (human, UniProt P08069 31-933) (assay: SPR (BIACORE 3000), human IGF1R immobilized on CM5, 1:1 model).
T1 construct: It holds the full alpha subunit, the furin site RKRR and most of the extracellular part of the beta subunit; Amine-coupled to a CM5 chip for SPR; also called recombinant extracellular portion of the human IGF1R fragment; not shown: His tag from pCDN4/myc-His vector
Protocol: Approximately 3000 Resonance Units (RU) of recombinant human IGF1R were immobilized on a Sensor chip CM5. Immobilization was carried out at a concentration of 10 μg/ml in 10 mM acetate at pH4.0 using the amine coupling kit supplied by the manufacturer. The remaining binding sites were blocked with 1 M ethanolamine pH 8.5. An ethanolamine blocked surface was used as a reference surface. For the binding studies, analyses were carried out at 25° C. in 10 mM HEPES, pH7.4 containing 150 mM NaCl, 3 mM EDTA and 0.005% surfactant P20 (Polyoxyethylenesorbitan; GE Healthcare). […] Surfaces were regenerated with 10 mM glycine pH 2.0 with a contact time of 24 seconds. Data were analyzed with BIAevaluation 4.1 software (GE Healthcare).

T1 sequence (P08069 31-933): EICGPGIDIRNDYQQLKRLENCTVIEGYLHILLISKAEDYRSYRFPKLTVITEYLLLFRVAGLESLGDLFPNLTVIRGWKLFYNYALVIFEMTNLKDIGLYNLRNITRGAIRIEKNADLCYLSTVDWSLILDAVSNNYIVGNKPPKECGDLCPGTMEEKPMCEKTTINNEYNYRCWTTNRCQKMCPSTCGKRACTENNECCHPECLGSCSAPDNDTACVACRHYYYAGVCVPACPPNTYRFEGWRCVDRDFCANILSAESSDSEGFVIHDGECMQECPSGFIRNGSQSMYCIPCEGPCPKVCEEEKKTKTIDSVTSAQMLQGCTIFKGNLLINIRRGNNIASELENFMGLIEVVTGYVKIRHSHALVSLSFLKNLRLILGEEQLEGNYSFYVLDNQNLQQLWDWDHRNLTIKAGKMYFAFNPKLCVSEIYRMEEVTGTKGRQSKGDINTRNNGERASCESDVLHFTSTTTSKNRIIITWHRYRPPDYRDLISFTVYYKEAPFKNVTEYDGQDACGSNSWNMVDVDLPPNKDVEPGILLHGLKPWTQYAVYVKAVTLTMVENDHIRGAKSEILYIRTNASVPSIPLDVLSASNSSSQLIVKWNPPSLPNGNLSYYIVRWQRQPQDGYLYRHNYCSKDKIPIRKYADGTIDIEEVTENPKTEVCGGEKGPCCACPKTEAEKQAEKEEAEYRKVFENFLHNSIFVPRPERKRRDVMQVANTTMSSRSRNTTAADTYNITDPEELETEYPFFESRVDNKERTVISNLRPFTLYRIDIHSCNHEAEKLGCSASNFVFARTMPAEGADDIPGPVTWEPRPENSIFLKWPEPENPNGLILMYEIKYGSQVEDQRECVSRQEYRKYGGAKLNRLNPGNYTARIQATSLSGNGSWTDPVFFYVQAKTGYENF

Kd [nM]	koff [s⁻¹]	Binder
0.45	0.00039	IGF1R-4_H4 (VHH, Humanized variant of IGF1R-4; expressed from pSJF2H in E. coli and purified by IMAC; any vector tag is not described) VHH: QVQLVESGGGLVQPGGSLRLSCAVSGGTVSPTAMGWFRQAPGKGLEFVGHITWSRGTTRYASSVKGRFTISRDSSKNTVYLQMNSLRAEDTAVYYCAASTFLRILPEESAYTYWGQGTLVTVSS
0.52	0.00046	IGF1R-4_H5 (VHH, Humanized variant of IGF1R-4; expressed from pSJF2H in E. coli and purified by IMAC; any vector tag is not described) VHH: QVQLVESGGGLVQPGGSLRLSCAVSGGTVSPTAMGWFRQAPGKEREFVGHITWSRGTTRYASSVKGRFTISRDSSKNTVYLQMNSLRAEDTAVYYCAASTFLRILPEESAYTYWGQGTLVTVSS
0.39	0.00034	IGF1R-4_H3 (VHH, Humanized variant of IGF1R-4; expressed from pSJF2H in E. coli and purified by IMAC; any vector tag is not described) VHH: QVQLVESGGGLVQPGGSLRLSCAVSGGTVSPTAMGWFRQAPGKGLEFVGHITWSRGTTRYASSVKGRFTISRDNSKNTVYLQMNSLRAEDTAVYYCAASTFLRILPEESAYTYWGQGTLVTVSS
1.07	0.00061	IGF1R-4_H2 (VHH, Humanized variant of IGF1R-4; expressed from pSJF2H in E. coli and purified by IMAC; any vector tag is not described) VHH: QVQLVESGGGLVQPGGSLRLSCAVSGGTVSPTAMGWVRQAPGKGLEWVGHITWSRGTTRYASSVKGRFTISRDNSKNTVYLQMNSLRAEDTAVYYCAASTFLRILPEESAYTYWGQGTLVTVSS
0.32	0.00029	IGF1R-4 VHH (VHH, Llama VHH, monomeric; Expressed from pSJF2H in TG1 E. coli and purified by IMAC; also called anti-IGF1R VHH IGF1R-4) VHH: QVKLEESGGGLVQAGGSLRLSCEVSGGTVSPTAMGWFRQAPGKEREFVGHITWSRGTTRVASSVKDRFTISRDSAKNTVYLQMNSLKSEDTAVYYCAASTFLRILPEESAYTYWGQGTQVTVSS

Each binder was assayed against T2, recombinant human Insulin Receptor (R&D systems) (human, UniProt P06213-2 28-944, limits assumed) (assay: SPR, IGF1R-4 VHH (0.5 - 50nM) over immobilized recombinant human Insulin Receptor).
T2 construct: extracellular domain; Bought protein; About 4000 RU immobilized on a CM5 chip; also called IR; recombinant extracellular portion of the human Insulin Receptor
T2 sequence (P06213 other isoform, or with tags, fused parts or gaps limits assumed): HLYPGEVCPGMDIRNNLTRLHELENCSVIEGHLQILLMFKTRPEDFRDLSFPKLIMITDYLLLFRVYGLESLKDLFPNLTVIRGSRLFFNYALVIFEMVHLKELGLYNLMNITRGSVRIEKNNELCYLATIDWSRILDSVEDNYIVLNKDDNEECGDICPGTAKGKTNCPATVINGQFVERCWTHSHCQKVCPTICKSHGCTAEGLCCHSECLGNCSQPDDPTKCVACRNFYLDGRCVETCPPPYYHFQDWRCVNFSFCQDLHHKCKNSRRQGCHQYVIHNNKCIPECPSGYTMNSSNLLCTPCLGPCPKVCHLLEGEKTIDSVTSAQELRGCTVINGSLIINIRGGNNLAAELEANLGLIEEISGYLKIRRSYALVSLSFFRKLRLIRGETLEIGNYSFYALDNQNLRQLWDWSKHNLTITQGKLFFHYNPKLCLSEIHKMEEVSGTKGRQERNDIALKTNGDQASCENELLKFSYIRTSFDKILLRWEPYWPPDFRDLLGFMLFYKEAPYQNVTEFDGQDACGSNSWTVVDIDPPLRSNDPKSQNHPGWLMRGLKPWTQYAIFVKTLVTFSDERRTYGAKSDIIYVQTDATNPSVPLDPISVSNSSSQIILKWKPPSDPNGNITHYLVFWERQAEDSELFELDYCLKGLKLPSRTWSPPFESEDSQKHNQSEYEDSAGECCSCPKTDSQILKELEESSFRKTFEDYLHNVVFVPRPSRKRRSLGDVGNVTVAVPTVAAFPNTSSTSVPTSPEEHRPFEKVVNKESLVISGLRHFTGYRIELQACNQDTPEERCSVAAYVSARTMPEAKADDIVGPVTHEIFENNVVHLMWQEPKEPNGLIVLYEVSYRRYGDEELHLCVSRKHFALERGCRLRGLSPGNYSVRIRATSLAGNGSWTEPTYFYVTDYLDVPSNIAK

binding result	Binder
no binding (tested: 50 nM)	IGF1R-4 VHH (VHH, Llama VHH, monomeric; Expressed from pSJF2H in TG1 E. coli and purified by IMAC; also called anti-IGF1R VHH IGF1R-4) VHH: QVKLEESGGGLVQAGGSLRLSCEVSGGTVSPTAMGWFRQAPGKEREFVGHITWSRGTTRVASSVKDRFTISRDSAKNTVYLQMNSLKSEDTAVYYCAASTFLRILPEESAYTYWGQGTQVTVSS

— US20170022277A1 (NATIONAL RESEARCH COUNCIL OF CANADA, published 2017)
